# Source: patent US20090130710A1, “Enhancing vegetative protein production in transgenic plants using seed specific promoters” (priority 2005, published 2009)
# T1: α-L-iduronidase (IDUA) activity (Homo sapiens, UniProt P35475)
# T1 construct: arcelin-5-I (ARC5-I) signal peptide of Phaseolus vulgaris (N); made in house; host or cells: transgenic Arabidopsis thaliana T3 seeds (wild type and cgl mutant)
# T1 sequence (P35475 28-653): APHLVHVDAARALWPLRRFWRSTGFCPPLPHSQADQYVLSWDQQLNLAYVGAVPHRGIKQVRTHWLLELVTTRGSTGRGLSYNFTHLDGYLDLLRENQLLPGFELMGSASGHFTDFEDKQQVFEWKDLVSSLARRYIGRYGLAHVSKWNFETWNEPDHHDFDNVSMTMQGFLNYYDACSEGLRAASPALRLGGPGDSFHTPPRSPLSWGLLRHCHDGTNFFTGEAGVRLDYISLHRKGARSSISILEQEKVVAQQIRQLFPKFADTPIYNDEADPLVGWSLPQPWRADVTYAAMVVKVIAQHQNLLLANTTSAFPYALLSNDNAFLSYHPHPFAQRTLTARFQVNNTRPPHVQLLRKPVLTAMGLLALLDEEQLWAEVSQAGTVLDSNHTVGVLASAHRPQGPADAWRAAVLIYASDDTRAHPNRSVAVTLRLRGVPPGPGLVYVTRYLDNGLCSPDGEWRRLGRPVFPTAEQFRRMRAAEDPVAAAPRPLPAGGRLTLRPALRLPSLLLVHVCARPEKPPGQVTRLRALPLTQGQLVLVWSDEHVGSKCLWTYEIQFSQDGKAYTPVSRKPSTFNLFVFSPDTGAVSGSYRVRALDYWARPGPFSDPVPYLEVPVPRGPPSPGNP
# B1: IDUA derived from transgenic WT seeds: recombinant human α-L-iduronidase purified from transgenic Arabidopsis wild-type T3 seeds (protein, UniProt P35475 28-653, looked up)
# Alpha-L-iduronidase: T1 sequence (P35475 28-653)
# modifications: made in Arabidopsis seeds
# B2: IDUA derived from transgenic cg/mutant seeds: recombinant human α-L-iduronidase purified from transgenic Arabidopsis cgl mutant seeds (N-acetylglucosaminyl transferase I deficient) (protein, UniProt P35475 28-653, looked up)
# Alpha-L-iduronidase: T1 sequence (P35475 28-653)
# modifications: made in Arabidopsis cgl mutant seeds
# Legend:
# [1] = test system: transgenic tobacco leaves co-expressing ABI3 and α-L-iduronidase; experiment: IDUA activity in leaves of tobacco co-transformants incubated on culture media with ABA or stress chemicals; assay type: cell-based
# Protocol: FIG. 6. Use of ABA to enhance human α-L-iduronidase activity in plants co-expressing ABI3 and α-L-iduronidase.
# FIG. 10. The effects of different treatments designed to enhance endogenous ABA levels on human α-L-iduronidase activities. Leaves of selected tobacco co-transformants (plants co-expressing constructs a and c [Arc-IDUA/ABI3] and plants co-expressing constructs a and d [Arc-IDUA-KDEL/ABI3]) were incubated for 6 days in media containing the following chemicals: (1) polyethylene glycol, PEG; (2) mM NaCl; (3) mM sucrose; (4) mM mannitol, or the leaves were kept on medium at 4 degrees celsius.
# (§1) Stably transformed plants were cultured in magenta boxes at 25° C. and sub-cultured every 3 months. Healthy, fully expanded leaves from 4-week plants were used in the present study.
# [2] = test system: tobacco leaves co-expressing Arc-IDUA/ABI3 or Arc-IDUA-KDEL/ABI3; experiment: Western blot of α-L-iduronidase protein in tobacco co-transformant leaves; assay type: cell-based; conditions: day 6 of incubation; Arc-IDUA/ABI3 and Arc-IDUA-KDEL/ABI3 leaves
# Protocol: FIG. 9. Western blot showing the effects of ABA at different concentrations of the levels of human α-L-iduronidase protein at day 6 of incubation. As with the activity data (FIG. 7), leaves of selected tobacco co-transformants (plants co-expressing constructs a and c [Arc-IDUA/ABI3] and plants co-expressing constructs a and d [Arc-IDUA-KDEL/ABI3]) incubated for 6 days in increasing concentrations of S(+)-ABA, show the maximum α-L-iduronidase protein accumulation levels at 150 μM S(+)-ABA.
# [3] = test system: tobacco leaves co-expressing Arc-IDUA/ABI3 or Arc-IDUA-KDEL/ABI3; experiment: Northern blot analysis of α-L-iduronidase mRNA in tobacco co-transformant leaves; assay type: cell-based; conditions: 100 μM S(+)-ABA, 6 days, compared to leaves in culture without ABA
# Source text: FIG. 8. ABA acts at the transcriptional level to enhance the levels of human α-L-iduronidase.
# [4] = test system: transgenic tobacco leaves co-expressing construct (a) (the CnABI3 gene) and construct (b) (encoding GUS); experiment: GUS activity in transgenic tobacco leaves co-expressing CnABI3 and Vic-GUS; assay type: cell-based; conditions: increasing concentration of natural ABA up to 200 μM
# Protocol: FIG. 4. Effect of natural S-(+)-ABA on recombinant bacterial β-glucuronidase (GUS) activities in transgenic tobacco leaves co-expressing construct (a) (the CnABI3 gene) and construct (b) (encoding GUS). […] There is a greater enhancement of GUS activities, with an increasing concentration of natural ABA up to 200 μM.
# Transgenic tobacco plants were also generated by co-expressing the CnABI3 gene (construct a) and a gene construct containing the bacterial GUS gene coding region linked to a seed storage protein gene promoter—the vicilin gene promoter (construct b of FIG. 3) (Jiang et al., 1995).
# as §1
# [5] = molecular target: T1, α-L-iduronidase (IDUA) activity; experiment: IDUA specific activity after purification from transgenic Arabidopsis seeds (4MU formation); assay type: biochemical; conditions: for Units/mg (specific activity): units are nmoles 4MU formed per minute
# Source text: Table 1. Specific activities of Arabidopsis-derived α-L-iduronidase following purification of the recombinant enzyme from T3 seeds using a modified three-column procedure developed for extraction from human liver (Clements et al., 1989).
# [6] = step Ab: combined elution fractions from antibody column
# [7] = step BGel: combined elution fractions from Bio-Gel P100 column
# [8] = step ConA: combined elution fractions from concanavalin A/Sepharose column
# [9] = step Crude: clarified lysate (lipid removed)
Molecule,"Units/mg (specific activity) [5, 6]","Units/mg (specific activity) [5, 7]","Units/mg (specific activity) [5, 8]","Units/mg (specific activity) [5, 9]",also measured
[Cl-].[Na+] [NaCl],–,–,–,–,"effect on α-L-iduronidase activities of treatments designed to enhance endogenous ABA levels ([1]; 6 days incubation, compared to ABA control (150 μM S(+)-ABA), NaCl 240 mM or 300 mM): dramatic effectiveness in enhancing α-L-iduronidase activities"
"CC1=CC(=O)CC(C)(C)[C@@]1(O)/C=C/C(C)=C\C(=O)O [ABA, S-(+)-ABA]",–,–,–,–,"ABA concentration at which α-L-iduronidase activities reach a maximum ([1]; 6 days incubation in increasing concentrations, Arc-IDUA/ABI3 and Arc-IDUA-KDEL/ABI3 leaves): 150 µM; IDUA activities in leaves ([1]; ABA-treated leaves co-expressing ABI3 and IDUA-KDEL, 7 days of incubation): ≤ 16,000 pmol min^−1 mg^−1; enhancement of α-L-iduronidase activity versus transgenic control leaves (no ABA) ([1]; S(+)-ABA at 80 μM, day 7 of incubation, leaves co-expressing constructs a and d (Arc-IDUA-KDEL/ABI3)): ~58 fold; ABA concentration showing maximum α-L-iduronidase protein accumulation levels [2]: 150 µM; effect on steady-state mRNA levels encoding α-L-iduronidase [3]: enhanced steady-state mRNA levels; effect on recombinant GUS activities [4]: enhanced GUS activities"
B1,"9,033 Units/mg","14,700 Units/mg",29 Units/mg,6.3 Units/mg,"specific activity of the enzyme ([5]; following chromatography on Bio-Gel P-100, purified from T3 seeds): 14,700 nmol 4 MU/min/mg TSP"
B2,"2,700 Units/mg","7,800 Units/mg",8 Units/mg,2.04 Units/mg,–
